Experimental data published in patent US20230265175A1.

Target: PD17(p)PS413 (24AWF)
Test: peptide-coated ELISA (plate coated with 1 µg/ml peptide 24AWF, anti-human IgG-HRP, ABTS, OD405)

EC50 (read off the curve): 0.04 µg/mL
B1: V5-AFM-hIgG4-S228P (antibody, V domains shown)
VH: EVQLVESGGGLVQPGGSLRLSCAASGFTFSSFALNWVRQAPGKGLEWVGHIRSKTNNYVTFYAASVKGRFTVSRDDSQNTAYLQMNSLKTEDTATYYCVRRGPRDSWFGYWGQGTLVTVSS
VL: DIVMTQSPLSLPVTLGEPASISCRSSQKIVHRNANTYLEWYLQKPGQSPQLLIYTVSNRFSGVPDRFSGSGSGTDFTLKISRVEAEDLGVYYCFQGSYLPLTFGGGTKVEIKR
